# Laboratory results from US20180339057A1 (Novo Nordisk, published 2018).
# Residue numbers refer to the chain shown, from its start. Names and notes keep the numbering of the source.
# T1: human MIC-1 receptor (hGFRAL, GDNF family receptor alpha like), full length (human, UniProt Q6UXV0 19-394)
# T1 sequence (looked up): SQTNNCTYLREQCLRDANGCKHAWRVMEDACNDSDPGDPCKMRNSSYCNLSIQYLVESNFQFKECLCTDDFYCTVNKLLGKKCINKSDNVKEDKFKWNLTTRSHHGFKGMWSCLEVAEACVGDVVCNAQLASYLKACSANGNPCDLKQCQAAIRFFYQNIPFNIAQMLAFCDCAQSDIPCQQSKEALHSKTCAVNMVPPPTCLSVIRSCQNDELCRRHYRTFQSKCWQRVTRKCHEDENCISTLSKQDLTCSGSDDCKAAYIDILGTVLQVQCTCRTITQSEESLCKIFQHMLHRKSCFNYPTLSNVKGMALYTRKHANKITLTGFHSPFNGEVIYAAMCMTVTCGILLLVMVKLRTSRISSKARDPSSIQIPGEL
# B1: AASPAGSPTSTEEGTSESATPESGPG-MIC-1(SEQ ID NO: 1) (ligand)
# chain: AASPAGSPTSTEEGTSESATPESGPGARNGDHCPLGPGRCCRLHTVRASLEDLGWADWVLSPREVQVTMCIGACPSQFRAANMHAQIKTSLHRLKPDTVPAPCCVPASYNPMVLIQKTDTGVSLQTYDDLLAKDCHCI
# B2: AASPAGSPTSTEEGTSESATPESGPG-MIC-1-Δ1-3 (ligand)
# chain: AASPAGSPTSTEEGTSESATPESGPGGDHCPLGPGRCCRLHTVRASLEDLGWADWVLSPREVQVTMCIGACPSQFRAANMHAQIKTSLHRLKPDTVPAPCCVPASYNPMVLIQKTDTGVSLQTYDDLLAKDCHCI
# B3: A(GPEQGQEP)3-MIC-1-Δ1-3 (ligand)
# chain: AGPEQGQEPGPEQGQEPGPEQGQEPGDHCPLGPGRCCRLHTVRASLEDLGWADWVLSPREVQVTMCIGACPSQFRAANMHAQIKTSLHRLKPDTVPAPCCVPASYNPMVLIQKTDTGVSLQTYDDLLAKDCHCI
# B4: (AEE)2AES-MIC-1-Δ1-3 (ligand)
# chain: AEEAEEAESGDHCPLGPGRCCRLHTVRASLEDLGWADWVLSPREVQVTMCIGACPSQFRAANMHAQIKTSLHRLKPDTVPAPCCVPASYNPMVLIQKTDTGVSLQTYDDLLAKDCHCI
# B5: (AEE)6AES-MIC-1 (ligand)
# chain: AEEAEEAEEAEEAEEAEEAESGDHCPLGPGRCCRLHTVRASLEDLGWADWVLSPREVQVTMCIGACPSQFRAANMHAQIKTSLHRLKPDTVPAPCCVPASYNPMVLIQKTDTGVSLQTYDDLLAKDCHCI
# B6: SEPATSGSETPGTSESATPESGPGTSTEPS-MIC-1-Δ1-3 (ligand)
# chain: SEPATSGSETPGTSESATPESGPGTSTEPSGDHCPLGPGRCCRLHTVRASLEDLGWADWVLSPREVQVTMCIGACPSQFRAANMHAQIKTSLHRLKPDTVPAPCCVPASYNPMVLIQKTDTGVSLQTYDDLLAKDCHCI
# B7: (AEE)5AES-MIC-1-Δ1-3 (ligand)
# chain: AEEAEEAEEAEEAEEAESGDHCPLGPGRCCRLHTVRASLEDLGWADWVLSPREVQVTMCIGACPSQFRAANMHAQIKTSLHRLKPDTVPAPCCVPASYNPMVLIQKTDTGVSLQTYDDLLAKDCHCI
# B8: (AEE)3AES-MIC-1-Δ1-3 (ligand)
# chain: AEEAEEAEEAESGDHCPLGPGRCCRLHTVRASLEDLGWADWVLSPREVQVTMCIGACPSQFRAANMHAQIKTSLHRLKPDTVPAPCCVPASYNPMVLIQKTDTGVSLQTYDDLLAKDCHCI
# B9: AAPEDEETPEQE-MIC-1-Δ1-3 (ligand)
# chain: B8 chain with E2A, E3P, A4E, E5D, A7E, E8T, E9P, A10E, E11Q, S12E
# B10: TSESATPESGPGTSESATPESGPG-MIC-1(R2A,N3E) (ligand)
# chain: TSESATPESGPGTSESATPESGPGAAEGDHCPLGPGRCCRLHTVRASLEDLGWADWVLSPREVQVTMCIGACPSQFRAANMHAQIKTSLHRLKPDTVPAPCCVPASYNPMVLIQKTDTGVSLQTYDDLLAKDCHCI
# B11: MIC-1(R2A,N3E,H18E) (ligand)
# chain: AAEGDHCPLGPGRCCRLETVRASLEDLGWADWVLSPREVQVTMCIGACPSQFRAANMHAQIKTSLHRLKPDTVPAPCCVPASYNPMVLIQKTDTGVSLQTYDDLLAKDCHCI
# B12: MIC-1(R2A,N3E,M57E) (ligand)
# chain: B11 chain with E18H, M57E
# B13: MIC-1(R2A,N3E,R53E) (ligand)
# chain: B11 chain with E18H, R53E
# B14: MIC-1(R2A,N3E,R21E) (ligand)
# chain: B11 chain with E18H, R21E
# B15: MIC-1(R2A,N3E,K69E) (ligand)
# chain: B11 chain with E18H, K69E
# B16: MIC-1(R2A,N3E,L105E) (ligand)
# chain: B11 chain with E18H, L105E
# B17: MIC-1(R2A,N3E,P85E) (ligand)
# chain: B11 chain with E18H, P85E
# B18: MIC-1(R2A,N3E,K107E) (ligand)
# chain: B11 chain with E18H, K107E
# B19: AES-MIC-1-Δ1-3 (ligand)
# chain: B11 chain with A2E, E3S, E18H
# B20: MIC-1(R2A,N3E,R67E) (ligand)
# chain: B11 chain with E18H, R67E
# B21: MIC-1(R2A,N3E,P11E) (ligand)
# chain: B11 chain with P11E, E18H
# B22: MIC-1(R2A,N3E,A54E) (ligand)
# chain: B11 chain with E18H, A54E
# B23: MIC-1(R2A, N3E) (ligand)
# chain: B11 chain with E18H
# B24: MIC-1(R2A,N3E,A30E) (ligand)
# chain: B11 chain with E18H, A30E
# B25: MIC-1(R2A,N3E,L68E) (ligand)
# chain: B11 chain with E18H, L68E
# B26: MIC-1(R2A,N3E,A47E) (ligand)
# chain: B11 chain with E18H, A47E
# B27: (GEPS)5-MIC-1(SEQ ID NO: 1) (ligand)
# chain: GEPSGEPSGEPSGEPSGEPSARNGDHCPLGPGRCCRLHTVRASLEDLGWADWVLSPREVQVTMCIGACPSQFRAANMHAQIKTSLHRLKPDTVPAPCCVPASYNPMVLIQKTDTGVSLQTYDDLLAKDCHCI
# B28: AAPEDEETPEQEGSGSGSGSGS-MIC-1-Δ1-3 (ligand)
# chain: AAPEDEETPEQEGSGSGSGSGSGDHCPLGPGRCCRLHTVRASLEDLGWADWVLSPREVQVTMCIGACPSQFRAANMHAQIKTSLHRLKPDTVPAPCCVPASYNPMVLIQKTDTGVSLQTYDDLLAKDCHCI
# B29: AAPDEGTEEETEGSGSGSGSGS-MIC-1-Δ1-3 (ligand)
# chain: B28 chain with E4D, D5E, E6G, E7T, T8E, P9E, Q11T
# B30: SPAGSPTSTEEGTSESATPESGPG-MIC-1(SEQ ID NO: 1) (ligand)
# chain: SPAGSPTSTEEGTSESATPESGPGARNGDHCPLGPGRCCRLHTVRASLEDLGWADWVLSPREVQVTMCIGACPSQFRAANMHAQIKTSLHRLKPDTVPAPCCVPASYNPMVLIQKTDTGVSLQTYDDLLAKDCHCI
# B31: AEEAES-MIC-1-Δ1-3 (ligand)
# chain: AEEAESGDHCPLGPGRCCRLHTVRASLEDLGWADWVLSPREVQVTMCIGACPSQFRAANMHAQIKTSLHRLKPDTVPAPCCVPASYNPMVLIQKTDTGVSLQTYDDLLAKDCHCI
# B32: …-MIC-1-Δ1-3 (ligand)
# chain: SEPATSGSETPGTSTEPSEGSAPGGDHCPLGPGRCCRLHTVRASLEDLGWADWVLSPREVQVTMCIGACPSQFRAANMHAQIKTSLHRLKPDTVPAPCCVPASYNPMVLIQKTDTGVSLQTYDDLLAKDCHCI
# B33: (SEPATSGSETPG)2-MIC-1-Δ1-3(M57L) (ligand)
# chain: B32 chain with T13S, S14E, T15P, E16A, P17T, E19G, G20S, S21E, A22T, M78L
# B34: (SEPATSGSETPG)2-MIC-1-Δ1-3 (ligand)
# chain: B32 chain with T13S, S14E, T15P, E16A, P17T, E19G, G20S, S21E, A22T
# B35: (SEPATSGSETPG)2-MIC-1-Δ1-3(M57E) (ligand)
# chain: B32 chain with T13S, S14E, T15P, E16A, P17T, E19G, G20S, S21E, A22T, M78E
# Target: T1, human MIC-1 receptor (hGFRAL, GDNF …)
# Assay: cell-based or functional assay
Binder,Emax (%),pERK EC50 (nM)
B1,100,0.4
B2,100,0.7
B3,100,0.8
B4,100,0.4
B5,100,0.8
B6,100,0.4
B7,100,0.5
B8,100,0.5
B9,100,0.5
B10,100,0.3
B11,100,0.5
B12,70,0.3
B13,100,0.4
B14,100,0.6
B15,100,0.5
B16,100,0.7
B17,100,0.6
B18,100,0.3

Binder,Emax (%),pERK EC50 (nM)
B19,100,0.3
B20,100,0.5
B21,100,0.4
B22,100,0.3
B23,100,0.3
B24,100,0.7
B25,100,0.8
B26,100,0.4
B27,100,0.5
B28,100,0.5
B29,100,0.5
B30,100,0.4
B31,100,0.3
B32,100,0.7
B33,100,0.6
B34,100,0.4
B35,60,0.6
